Results on 2 molecules are retold here after patent US20180282719A1 (published 2018).

In assay [1] the target is T1, recombinant soluble human IL-6 receptor (SR344) (human, UniProt P08887 20-344, biotinylated (sites not given) where immobilized via streptavidin or used in phage ELISA).
T1 construct: also called soluble IL-6 receptor; membrane-type IL-6 receptor (when biotinylated and immobilized on the chip)
T1 sequence (looked up): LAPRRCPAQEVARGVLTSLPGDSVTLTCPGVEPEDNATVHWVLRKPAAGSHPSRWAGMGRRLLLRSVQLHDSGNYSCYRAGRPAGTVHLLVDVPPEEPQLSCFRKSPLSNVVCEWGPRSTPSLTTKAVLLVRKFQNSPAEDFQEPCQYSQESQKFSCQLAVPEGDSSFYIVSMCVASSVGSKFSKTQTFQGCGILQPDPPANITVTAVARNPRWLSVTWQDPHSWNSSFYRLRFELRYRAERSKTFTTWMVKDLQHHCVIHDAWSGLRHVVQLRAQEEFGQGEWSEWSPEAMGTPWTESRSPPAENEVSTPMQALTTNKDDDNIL
Put plainly: SPR Biacore T100, antibody captured by anti-IgG gamma chain F(ab)2, SR344 analyte, pH 7.4, 37 C. The protocol: Kinetic analyses of antigen-antibody reactions at pH 7.4 were carried out on the four types of antibodies, i.e., the humanized PM1 antibody (wild type: WT), and […], H3pI/L73-IgG1, Fv2-IgG1, and Fv4-IgG1 constructed in Examples 2 and 10, by using a Biacore T100™ surface plasmon resonance system (GE Healthcare) (buffer: 10 mM MES (pH 7.4), 150 mM NaCl, 0.05% TWEEN® 20 (polyoxyethelene sorbitan monolaurate)). Each antibody was bound on a sensor chip on which an anti-IgG γ chain specific F(ab)₂ (Pierce) was immobilized by amine coupling, and then, SR344 adjusted to a concentration of 9.8 to 40 nM was injected thereto as an analyte. The association to and dissociation from SR344 were observed on a real-time basis for the pH-dependent-binding clones. All the measurements were carried out at 37° C. Association rate constants kₐ (1/Ms) and dissociation rate constants kd (1/s) were calculated using Biacore T100™ Evaluation Software (GE Healthcare), and dissociation constants KD (M) were calculated on the basis of those values (Table 7).
The association to and dissociation from SR344 were observed on a real-time basis using the same method as Example 10 for the eleven types of antibodies, humanized PM1 antibody (wild type: WT) and H3pI/L73-IgG1, Fv1-M71, Fv1-M73, Fv2-IgG1, Fv3-M71, Fv3-M73, Fv4-IgG1, Fv4-IgG2, Fv4-M58, and Fv4-M73, constructed as described above. The association rate constants kₐ (1/Ms) and dissociation rate constants kd. (1/s) were calculated by analysis in the same manner, and the dissociation constants KD (M) were calculated on the basis of those values (Table 11).
Background: In SPR one partner is held on a chip, and binding of the other changes the refractive index at the surface.

Assay [2] deals with T1, recombinant soluble human IL-6 receptor …. Description: SPR Biacore T100, biotinylated SR344 on streptavidin chip (model of membrane-type IL-6 receptor), antibody as analyte, bound at pH 7.4, dissociation at pH 7.4, 37 C. The protocol: Binding to the membrane-type IL-6 receptor was evaluated by evaluating binding to the IL-6 receptor immobilized on a sensor chip. SR344 was biotinylated in accordance with a method known among persons with ordinary skill in the art, and the biotinylated SR344 was immobilized on the sensor chip via streptavidin using the affinity between streptavidin and biotin. All the measurements were carried out at 37° C. The mobile phase buffer was 10 mM MES (pH 5.8), 150 mM NaCl and 0.05% TWEEN® 20 (polyoxyethelene sorbitan monolaurate).
The pH-dependently-binding clones were injected under the condition of pH 7.4 to allow them to bind to SR344, and then, the pH-dependent dissociation of each clone at the pH of the mobile phase, pH 5.8, was observed. The results are shown in FIG. 21 (results for Fv1-M71, Fv1-M73, Fv3-M71, and Fv3-M73 are shown in FIG. 21, while results for other clones are shown in FIGS. 17 and 19). Analyses were carried out in the same manner as in Example 10 and the pH dependencies of the dissociation rate constants of all of the eleven types of clones are shown in Table 12.

The target is the same in assay [3]. Description: SPR Biacore T100, integrated RU of SR344 bound over ten cycles, 37 C. As for the experimental part: The produced pH-dependent binding clones described above were analyzed using a Biacore T100™ surface plasmon resonance system (GE Healthcare) for their ability to bind to the antigen SR344 multiple times at pH 5.8 and pH 7.4. More specifically, the analysis was carried out as follows. All the measurements were carried out at 37° C. First, the sample antibodies described above were bound onto a recomb-protein A/G (Pierce)-immobilized sensor chip by amine-coupling, where the mobile phase buffer was 10 mM MES (pH 5.8), 150 mM NaCl, and 0.05% TWEEN® 20 (polyoxyethelene sorbitan monolaurate) (step 1). SR344 adjusted to a concentration of about 40 nM was injected as an analyte for 3 minutes at pH 7.4 and allowed to bind (the buffer for injected SR344 was 10 mM MES (pH 7.4), 150 mM NaCl, and 0.05% TWEEN® 20 (polyoxyethelene sorbitan monolaurate)) (step 2). Subsequently, the injection of SR344 was discontinued and a mobile phase of pH 5.8 was allowed to flow for about 70 seconds to expose the antibody/SR344 complex under acidic conditions (step 3). Ten sets of this binding (step 2)/acidity exposure (step 3) process were continuously repeated to observe the sensorgram in real-time, which is shown in FIG. 11. […] In the 10-set repetition of the binding (step 2) and acidic exposure (step 3), almost all H170/L82 and CLH5/L73 antibodies were able to bind to new antigens in each set. […]

B1: Fv4-IgG1 (antibody)
heavy: not shown
light: DIQMTQSPSSLSASVGDSVTITCQASTDISSHLNWYQQKPGKAPELLIYYGSHLLSGVPSRFSGSGSGTDFTFTISSLEAEDAATYYCGQGNRLPYTFGQGTKVEIERTVAAPSVFIFPPSDEQLKSGTASVVCLLNNFYPREAKVQWKVDNALQSGNSQESVTEQDSKDSTYSLSSTLTLSKADYEKHKVYACEVTHQGLSSPVTKSFNRGEC
notes: VH3-IgG1 / VL3-CK
For the molecule B1, in assay [1], the Kd (commonly a measure of binding affinity in units of concentration) amounted to 1.4 nM; the koff (usually the rate constant with which the complex falls apart) worked out at 0.001 s⁻¹; the kon (as a rule, the rate constant with which the complex forms) was 720000 M⁻¹ s⁻¹. The koff in assay [2] turned out to be 0.00047 s⁻¹.

B2: H170/L82 (antibody, IgG1, V domains shown)
VH: QVQLQESGPGLVKPSETLSLTCAVSGHSISHHHAHSWVRQPPGEGLEWIGYISYSGITHYNPHLKGRVTISRDTSKNQFSLKLSSVTAADTAAYYCARVLARITAMDHWGEGTLVTVSS
VL: DIQMTQSPSSLSASVGDSVTITCQASQDISSHLNWYQQKPGKAPELLIYYGSHLHSGVPSRFSGSGSGTDFTFTISSLEAEDAATYYCGQGNRLPYTFGQGTKVEIE
notes: expressed and purified as IgG (IgG1); also called H170/L82-IgG1
Take B2: the “total amount of antigen bound over ten cycles relative to WT” value in assay [3] was roughly 4 fold.
